Target: T1, ^75Se-labeled selenoprotein P prepared from HepG2 cells (human (endogenous in HepG2), UniProt P49908 20-381, ^75Se label (cells cultured with ^75Se as selenite); selenocysteine residues)
T1 construct: Selenoprotein P, human, secreted by HepG2 cells that express it endogenously; single band at 69 kDa; also called ^75Se-labeled SeP; ^75Se-labeled human SeP; source: endogenous, HepG2 conditioned medium with ^75Se selenite, partially purified (Ni-NTA agarose, PD-10)
T1 sequence (looked up): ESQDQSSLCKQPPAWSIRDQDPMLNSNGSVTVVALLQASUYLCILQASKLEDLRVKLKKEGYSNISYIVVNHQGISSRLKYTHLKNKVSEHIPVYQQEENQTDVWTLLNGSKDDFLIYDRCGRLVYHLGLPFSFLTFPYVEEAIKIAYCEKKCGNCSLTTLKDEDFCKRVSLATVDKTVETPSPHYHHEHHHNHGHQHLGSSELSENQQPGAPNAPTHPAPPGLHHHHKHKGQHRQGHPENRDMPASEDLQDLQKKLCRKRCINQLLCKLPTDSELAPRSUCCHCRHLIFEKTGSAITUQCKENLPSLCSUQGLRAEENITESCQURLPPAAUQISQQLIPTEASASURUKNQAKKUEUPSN
Test: radioligand binding; Jurkat cells (1.4 x 10^7) with serial dilution of ^75Se-labeled SeP, 1 h at 4 °C, RPMI 1640 with 0.1% BSA, 0.1% NaN3, 50 mM Hepes pH 7.4; nonspecific binding with 500-fold excess of unlabeled SeP; Scatchard analysis, n = 4
Conditions: one partner purified

Kd: 0.67 nM
B1: Apolipoprotein E receptor 2, 140-kDa variant endogenous on Jurkat cells (JΔ5,18) (receptor)
chain: AADPLLGGQGPAKDCEKDQFQCRNERCIPSVWRCDEDDDCLDHSDEDDCPKKTCADSDFTCDNGHCIHERWKCDGEEECPDGSDESEATCTKQVCPAEKLSCGPTSHKCVPASWRCDGEKDCEGGADEAGCATSLGTCRGDEFQCGDGTCVLAIKHCNQEQDCPDGSDEAGCLQGLNECLHNNGGCSHICTDLKIGFECTCPAGFQLLDQKTCGDIDECKDPDACSQICVNYKGYFKCECYPGYEMDLLTKNCKAAAGKSPSLIFTNRHEVRRIDLVKRNYSRLIPMLKNVVALDVEVATNRIYWCDLSYRKIYSAYMDKASDPKEQEVLIDEQLHSPEGLAVDWVHKHIYWTDSGNKTISVATVDGGRRRTLFSRNLSEPRAIAVDPLRGFMYWSDWGDQAKIEKSGLNGVDRQTLVSDNIEWPNGITLDLLSQRLYWVDSKLHQLSSIDFSGGNRKTLISSTDFLSHPFGIAVFEDKVFWTDLENEAIFSANRLNGLEISILAENLNNPHDIVIFHELKQPRAPDACELSVQPNGGCEYLCLPAPQISSHSPKYTCACPDTMWLGPDMKRCYRAPQSTSTTTLASTMTRTVPATTRAPGTTVHRSTYQNHSTETPSLTAAVPSSVSVPRAPSISPSTLSPATSNHSQHYANEDSKMGSTVTAAVIGIIVPIVVIALLCMSGYLIWRNWKRKNTKSMNFDNPVYRKTTEEEDEDELHIGRTAQIGHVYPARVALSLEDDGLP
modifications: highly glycosylated O-linked sugar domain

From article PMC10407282, “An efficient selenium transport pathway of selenoprotein P utilizing a high-affinity ApoER2 receptor variant and being independent of selenocysteine lyase” (The Journal of Biological Chemistry, 2023)
